“Also recorded” adds a separate entry of the source.

Experiment [1] relates to 12 week human fetal distal epithelial lung buds. The experiment is described as follows: Isolated human fetal lung bud culture in Matrigel: growth/expansion. Format: cell-based. To be noted: FGF7 alone, 2, 4 and 6 weeks in culture. From the text: All research utilizing human fetal tissue was approved by the University of Michigan institutional review board. Normal human fetal lungs were obtained from the University of Washington Laboratory of Developmental Biology, and epithelial lung buds were dissected as described below. All experiments were repeated using tissues from 3 individual lungs; 84 day post fertilization of unknown gender, 87 day post fertilization male, and 87 day post fertilization of unknown gender. All tissues were shipped in Belzer's solution at 4 degrees Celsius and were processed and in culture within 24 hours of isolation.
Isolated mouse buds were cultured in 4-6 μl droplets of matrigel, covered with media, and kept at 37 degrees Celsius with 5% Carbon Dioxide. Isolated human fetal lung buds were cultured in 25-50 μl droplets of matrigel, covered with media, and kept at 37 degrees Celsius with 5% Carbon Dioxide.
Distal regions of 12 week fetal lungs were cut into ˜2 mm sections and incubated with dispase, 100% FBS and then 10% FBS as described above, and moved to a sterile petri dish. Mesenchyme was removed by repeated pipetting of distal lung pieces after dispase treatment. Buds were washed with DMEM until mesenchymal cells were no longer visible in the media. Buds were then moved to a 1.5 mL eppendorf tube containing 200 uL of Matrigel, mixed using a p200 pipette, and plated in ˜20 uL droplets in a 24 well tissue culture plate. Plates were placed at 37 degrees Celsius with 5% CO2 for 20 minutes while droplets solidified. 500 uL of media was added to each well containing a droplet. Media was changed every 2-3 days.
All mouse bud, human fetal bud, and hPSC-derived human lung organoids were grown in low-serum basal media (basal media) with added growth factors. […]

The test system of experiment [2] is hPSC-derived foregut spheroids / HLOs. Nature of the experiment: hPSC-derived foregut spheroid / human lung organoid (HLO) culture: growth and phenotype. Format: cell-based. The method, then:
Given the robustness by which 3F media supported mouse and human lung bud progenitor growth and identity, experiments sought to determine whether these culture conditions could promote a distal epithelial lung progenitor-like population from hPSCs. NKX2.1+ ventral foregut spheroids were generated as previously described (Dye et al., 2016a; 2015), and were cultured in a droplet of Matrigel and overlaid with media containing 3F (FGF7, CHIR-99021, RA). Spheroids were considered to be “day 0” on the day they were placed in Matrigel. […] Epithelial structures grew first as cystic structures over the course of 2 weeks, followed by a period of epithelial folding that occurred between weeks 3-4 (FIG. 7A; FIG. 8C-D). Around 5-6 weeks in culture, the epithelial structures began forming bud-like structures that resembled human fetal epithelial distal bud tips that underwent bifurcations (FIG. 7A-B; FIG. 8D—bottom row). HLOs were passaged by gently removing Matrigel and replating in a fresh droplet while preserving structural integrity. In this way, HLOs were able to grow for over 16 weeks in culture while retaining their original shape. HLOs could also be passaged using mechanical shear through a 27-gauge needle, followed by embedding in fresh Matrigel and 3F media (FIG. 8E). Following passage, HLOs robustly re-established many small cysts that were expanded and serially passaged every 7-10 days many times (FIG. 8F).
The University of Michigan Human Pluripotent Stem Cell Research Oversight (hPSCRO) Committee approved all experiments using human embryonic stem cell (hESC) lines. hESC line UM63-1 (NIH registry #0277) was obtained from the University of Michigan and hESC line H9 (NIH registry #0062) was obtained from the WiCell Research Institute. ES cell lines were routinely karyotyped to ensure normal karyotype and ensure the sex of each line (H9-XX, UM63-1-XX). Cells are monitored for mycoplasma infection monthly using the MycoAlert Mycoplasma Detection Kit (Lonza). […]

[3] abbreviates: proportion of organoids in the medium.

B1: Recombinant Human Fibroblast Growth Factor 7 (protein, UniProt P21781 32-194, looked up)
Fibroblast growth factor 7: CNDMTPEQMATNVNCSSPERHTRSYDYMEGGDIRVRRLFCRTQWYLRIDKRGKVKGTQEMKNNYNIMEIRTVAVGIVAIKGVESEFYLAMNKEGKLYAKKECNEDCNFKELILENHYNTYASAKWTHNGGEMFVALNQKGIPVRGKKTKKEQKTAHFLPMAIT
notes: Recombinant human growth factor from R&D systems, used at 10 ng/mL unless otherwise noted
Turning to B1, the “Growth of human fetal lung buds in vitro” value in experiment [1] is “robust growth in vitro after 2 and 4 weeks, but resulted in reduced growth after 6 weeks; also recorded: supported an initial expansion of buds, but the tissue stopped expanding beyond the 4 week period”. Moreover, in experiment [2] (42 days 3F then 26 days FGF7 only, compared to 3F HLOs), the “HLO morphology after switch to FGF7 only” value is reported as “lost the peripheral bud-like regions”. Besides, in experiment [2] (setting [3]), the “HLOs with 'dense' phenotype” value is on record as 90% and the “HLOs with clear epithelial phenotype” value is given as 5%.
